# Results from patent publication US20120058906A1 (published 2012).
# T1: rHuman Erythropoietin R/Fc Chimera, CF (R&D Systems Cat#963-ER) (human, UniProt P19235 25-250)
# T1 construct: Purchased Fc chimera; also called EPO R/Fc; Epo R; not shown: Fc portion of the purchased chimera
# T1 sequence: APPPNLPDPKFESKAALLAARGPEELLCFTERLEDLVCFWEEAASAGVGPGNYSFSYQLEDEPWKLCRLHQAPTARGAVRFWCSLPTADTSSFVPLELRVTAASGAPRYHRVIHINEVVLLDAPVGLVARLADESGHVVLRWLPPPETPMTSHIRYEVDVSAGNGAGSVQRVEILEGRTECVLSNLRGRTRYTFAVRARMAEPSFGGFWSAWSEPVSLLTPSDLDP
# T2: rHuman Erythropoietin R/Fc Chimera, CF (R&D Systems Cat#963-ER) (human, UniProt P19235 25-250)
# T2 construct: Bought Fc chimera; also called EPO R/Fc; Epo R; not shown: Fc of the bought chimera
# T2 sequence: T1 sequence
# T3: rHuman Erythropoietin R/Fc Chimera, CF (R&D Systems Cat#963-ER) (human, UniProt P19235 25-250)
# T3 construct: Bought reagent; also called EPO R/Fc; Epo R; Fc part of the bought chimera not given
# T3 sequence: T1 sequence
# B1: Fab VH5-51_IGHD5-18*01>3_IGHJ4*01_G100R & V3-4_IGLJ1*01 (Fab, V domains shown)
# VH: EVQLVQSGAEVKKPGESLKISCKGSGYSFTSYWIGWVRQMPGKGLEWMGIIYPGDSDTRYSPSFQGQVTISADKSISTAYLQWSSLKASDTAMYYCARRRYSYGYDYFDYWGQGTLVTVSS
# VL: QTVVTQEPSFSVSPGGTVTLTCGLSSGSVSTSYYPSWYQQTPGQAPRTLIYSTNTRSSGVPDRFSGSILGNKAALTITGAQADDESDYYCVLYMGSGISYVFGTGTKVTVL
# notes: It was expressed as a Fab: CH1 with tags from Plasmid A and lambda CL from Plasmid E; also called Fab No. 23
# B2: Fab VH1-46_IGHD6-6*01_IGHJ1*01_S102A_S103P_S104F & L6_IGKJ1*01_S28P (Fab, V domains shown)
# VH: QVQLVQSGAEVKKPGASVKVSCKASGYTFTSYYMHWVRQAPGQGLEWMGIINPSGGSTSYAQKFQGRVTMTRDTSTSTVYMELSSLRSEDTAVYYCAREEYAPFSAEYFQHWGQGTLVTVSS
# VL: EIVLTQSPATLSLSPGERATLSCRASQPVSSYLAWYQQKPGQAPRLLIYDASNRATGIPARFSGSGSGTDFTLTISSLEPEDFAVYYCQQRSNWPPWTFGQGTKVEIKR
# notes: Fab
# B3: Fab VH1-46_IGHD3-10*01_IGHJ4*01 & B3_IGKJ1*01 (Fab, V domains shown)
# VH: QVQLVQSGAEVKKPGASVKVSCKASGYTFTSYYMHWVRQAPGQGLEWMGIINPSGGSTSYAQKFQGRVTMTRDTSTSTVYMELSSLRSEDTAVYYCAREYYYGSGSYYNDYFDYWGQGTLVTVSS
# VL: not shown
# notes: also called IGHV1-46*01
# Assays:
# [1] = biological target: T4, rHuman IGF-1 sR (IGF-1 sR), CF (R&D Systems Cat#391-GR) (human, UniProt P08069 31-932); experiment: MSD ECL multi-spot plate, antigen immobilized; Fab 8 nM; blank spot 479
# T4 construct: Purchased soluble receptor; also called insulin-like growth factor-1 soluble receptor; IGF-R1
# [2] = biological target: T5, rHuman P-Cadherin/Fc Chimera, CF (R&D Systems Cat#861-PC) (human, UniProt P22223 108-654); experiment: as above
# T5 construct: Purchased Fc chimera; not shown: Fc portion of the purchased chimera
# [3] = biological target: T1, rHuman Erythropoietin R/Fc Chimera, CF …; experiment: as above
# [4] = biological target: T6, Recombinant Human DLL4 (R&D Systems Cat#1506-D4/CF) (human, UniProt Q9NR61 27-524); experiment: as above
# T6 construct: Purchased recombinant protein; also called delta-like protein 4
# [5] = biological target: T7, rHuman ErbB2/Fc Chimera, CF (R&D Systems Cat#1129-ER) (human, UniProt P04626 23-652); experiment: as above
# T7 construct: Purchased Fc chimera; also called HER2/neu; not shown: Fc portion of the purchased chimera
# [6] = biological target: T8, rHuman EGF R/Fc Chimera, CF (R&D Systems Cat#344-ER) (human, UniProt P00533 25-645); experiment: as above
# T8 construct: Purchased Fc chimera; not shown: Fc portion of the purchased chimera
# [7] = biological target: T9, rHuman HGF R/c-MET/Fc Chimera, CF (R&D Systems Cat#358-MT/CF) (human, UniProt P08581 25-932); experiment: as above
# T9 construct: Purchased Fc chimera; also called HGF R/Fc; not shown: Fc portion of the purchased chimera
# [8] = biological target: T10, rHuman Notch-1/Fc Chimera, CF (R&D Systems Cat#3647-TK) (human, UniProt P46531 19-526); experiment: as above
# T10 construct: Purchased Fc chimera; not shown: Fc portion of the purchased chimera
# [9] = biological target: T11, rHuman CD44/Fc Chimera, CF (R&D Systems Cat#3660-CD) (human, UniProt P16070 21-220); experiment: as above
# T11 construct: Purchased Fc chimera; not shown: Fc portion of the purchased chimera
# [10] = biological target: T12, rHuman IGF-1 sR (insulin-like growth factor-1 soluble receptor), CF (R&D Systems Cat#391-GR) (human, UniProt P08069 31-932); experiment: ECL (MSD multi-spot), antigen on plate, Fab 10 nM
# T12 construct: Bought soluble receptor; also called IGF-R1
# [11] = biological target: T2, rHuman Erythropoietin R/Fc Chimera, CF …; experiment: ECL (MSD multi-spot), antigen on plate, Fab 10 nM
# [12] = biological target: T13, rHuman ErbB2/Fc Chimera, CF (R&D Systems Cat#1129-ER) (human, UniProt P04626 23-652); experiment: ECL (MSD multi-spot), antigen on plate, Fab 10 nM
# T13 construct: Bought Fc chimera; also called HER2/neu; not shown: Fc of the bought chimera
# [13] = biological target: T14, rHuman EGF R/Fc Chimera, CF (R&D Systems Cat#344-ER) (human, UniProt P00533 25-645); experiment: ECL (MSD multi-spot), antigen on plate, Fab 10 nM
# T14 construct: Bought Fc chimera; also called ErbB-1; not shown: Fc of the bought chimera
# [14] = biological target: T15, rHuman HGF R/c-MET/Fc Chimera, CF (R&D Systems Cat#358-MT/CF) (human, UniProt P08581 25-932); experiment: ECL (MSD multi-spot), antigen on plate, Fab 10 nM
# T15 construct: Bought Fc chimera; also called HGF R/Fc; not shown: Fc of the bought chimera
# [15] = biological target: T16, rHuman Notch-1/Fc Chimera, CF (R&D Systems Cat#3647-TK) (human, UniProt P46531 19-526); experiment: ECL (MSD multi-spot), antigen on plate, Fab 10 nM
# T16 construct: Bought Fc chimera; not shown: Fc of the bought chimera
# [16] = biological target: T17, rHuman CD44/Fc Chimera, CF (R&D Systems Cat#3660-CD) (human, UniProt P16070 21-220); experiment: ECL (MSD multi-spot), antigen on plate, Fab 10 nM
# T17 construct: Bought Fc chimera; not shown: Fc of the bought chimera
# [17] = biological target: T3, rHuman Erythropoietin R/Fc Chimera, CF …; experiment: ECL (MSD multi-spot), antigen spotted on plate; Fab 88.1 nM; blank spot 301
# [18] = biological target: T18, Recombinant Human DLL4 (R&D Systems Cat#1506-D4/CF) (human, UniProt Q9NR61 27-524); experiment: as above
# T18 construct: Bought reagent; also called delta-like protein 4
# [19] = biological target: T19, rHuman P-Cadherin/Fc Chimera, CF (R&D Systems Cat#861-PC) (human, UniProt P22223 108-654); experiment: as above
# T19 construct: Bought reagent; also called CDH3; Fc part of the bought chimera not given
# 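Also: blank spot per well as comparator with Hit at signal to blank ratio of 4 or more.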
binder,measurement,setting,value
B1,ECL signal,[1],1110 ECL signal
same,ECL signal,[2],669 ECL signal
same,ECL signal,[3],911 ECL signal
same,ECL signal,[4],5470 ECL signal
same,ECL signal,[5],1330 ECL signal
same,ECL signal,[6],1080 ECL signal
same,ECL signal,[7],1240 ECL signal
same,ECL signal,[8],916 ECL signal
same,ECL signal,[9],786 ECL signal
B2,ECL signal,[10],152 ECL signal
same,ECL signal,[11],392 ECL signal
same,ECL signal,[12],136 ECL signal
same,ECL signal,[13],207 ECL signal
same,ECL signal,[14],136 ECL signal
same,ECL signal,[15],280 ECL signal
same,ECL signal,[16],212 ECL signal
B3,ECL signal,[17],3370
same,ECL signal,[18],434
same,ECL signal,[19],278
